Values quoted from earlier work in article PMC10046553.

Target: CD71 (transferrin receptor 1) (Homo sapiens) (UniProt P02786)
Sequence (P02786 89-760): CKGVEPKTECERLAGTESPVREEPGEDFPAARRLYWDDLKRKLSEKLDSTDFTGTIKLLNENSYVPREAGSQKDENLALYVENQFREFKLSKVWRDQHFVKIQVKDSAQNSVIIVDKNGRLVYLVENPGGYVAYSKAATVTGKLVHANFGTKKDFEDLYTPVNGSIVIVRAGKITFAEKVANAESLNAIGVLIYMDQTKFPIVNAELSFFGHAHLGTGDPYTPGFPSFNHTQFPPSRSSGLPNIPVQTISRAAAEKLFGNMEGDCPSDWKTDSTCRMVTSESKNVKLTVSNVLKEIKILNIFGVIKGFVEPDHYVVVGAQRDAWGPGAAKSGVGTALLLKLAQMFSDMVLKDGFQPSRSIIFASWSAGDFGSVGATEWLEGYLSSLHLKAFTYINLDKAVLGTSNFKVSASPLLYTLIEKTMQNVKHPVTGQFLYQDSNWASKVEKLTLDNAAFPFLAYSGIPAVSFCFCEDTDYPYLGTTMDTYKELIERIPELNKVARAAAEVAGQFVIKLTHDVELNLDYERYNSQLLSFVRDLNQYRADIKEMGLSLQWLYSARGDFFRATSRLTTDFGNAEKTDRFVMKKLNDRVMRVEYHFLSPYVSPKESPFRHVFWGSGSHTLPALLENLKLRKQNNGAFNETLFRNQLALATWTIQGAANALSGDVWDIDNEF

Substance: Human serum albumin (from UniProt P02768)
- Kd: 750 nM
